The supplement of paper PMC9112550, “Optimization of the antimicrobial peptide Bac7 by deep mutational scanning” (BMC Biology, 2022)

System: Escherichia coli TOP10
Assay: shrunken log2 fold change of peptide-encoding DNA abundance (4.5 h post-induction vs induction); higher = less antimicrobial activity (less host growth inhibition)
Conditions: time post-induction: 4.5 h; library: site-saturation at positions 5, 18, 19, 20
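Further: peptides expressed intracellularly from a pBAD plasmid library in pooled LB shake-flask culture, induced with 0.3% L-arabinose, DNA abundance read by NGS, three biological replicates, DESeq2 with apeglm shrinkage.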

In order of falling “shrunken log2 fold change” value:
1. RRIRDRPPRLPRPRPRPEANPRP  1.28
2. RRIRRRPPRLPRPRPRPPLGPRP  0.998
3. RRIRARPPRLPRPRPRPFFAPRP  0.67
4. RRIRGRPPRLPRPRPRPPVFPRP  0.647
5. RRIRTRPPRLPRPRPRPDWLPRP  0.514
6. RRIRRRPPRLPRPRPRPLLQPRP  0.512
7. RRIRTRPPRLPRPRPRPQPRPRP  0.439
8. RRIRERPPRLPRPRPRPTAQPRP  0.416
9. RRIRGRPPRLPRPRPRPGTTPRP  0.379
10. RRIRKRPPRLPRPRPRPALHPRP  0.374
11. RRIRARPPRLPRPRPRPHDGPRP  0.373
12. RRIRMRPPRLPRPRPRPAHCPRP  0.352
13. RRIRDRPPRLPRPRPRPPHWPRP  0.322
14. RRIRHRPPRLPRPRPRPLRVPRP  0.298
15. RRIRWRPPRLPRPRPRPGWEPRP  0.292
16. RRIRKRPPRLPRPRPRPTHTPRP  0.285
17. RRIRVRPPRLPRPRPRPESWPRP  0.28
18. RRIRARPPRLPRPRPRPKRFPRP  0.249
19. RRIRLRPPRLPRPRPRPFFGPRP  0.246
20. RRIRFRPPRLPRPRPRPVTPPRP  0.241
21. RRIRHRPPRLPRPRPRPEHWPRP  0.237
22. RRIRMRPPRLPRPRPRPFGGPRP  0.222
23. RRIRKRPPRLPRPRPRPAWYPRP  0.205
24. RRIRSRPPRLPRPRPRPRFRPRP  0.203
25. RRIRPRPPRLPRPRPRPTRNPRP  0.201
26. RRIRWRPPRLPRPRPRPDEFPRP  0.196
27. RRIRHRPPRLPRPRPRPQCAPRP  0.191
28. RRIRGRPPRLPRPRPRPWAGPRP  0.188
29. RRIRLRPPRLPRPRPRPGGFPRP  0.176
30. RRIRERPPRLPRPRPRPWDPPRP  0.173
31. RRIRMRPPRLPRPRPRPKQYPRP  0.146
32. RRIRKRPPRLPRPRPRPHIWPRP  0.143
33. RRIRYRPPRLPRPRPRPCLEPRP  0.139
34. RRIRGRPPRLPRPRPRPHEWPRP  0.116
35. RRIRDRPPRLPRPRPRPNWPPRP  0.0913
36. RRIRIRPPRLPRPRPRPWQVPRP  0.0844
37. RRIRSRPPRLPRPRPRPEYDPRP  0.0801
38. RRIRPRPPRLPRPRPRPNAQPRP  0.0626
39. RRIRDRPPRLPRPRPRPLMMPRP  0.0576
40. RRIRGRPPRLPRPRPRPWQQPRP  0.0543
41. RRIRERPPRLPRPRPRPLWPPRP  0.0539
42. RRIRCRPPRLPRPRPRPGQTPRP  0.0466
43. RRIRVRPPRLPRPRPRPAIGPRP  0.045
44. RRIRHRPPRLPRPRPRPDLWPRP  0.0395
45. RRIRDRPPRLPRPRPRPDVAPRP  0.0356
46. RRIRWRPPRLPRPRPRPLCNPRP  0.0306
47. RRIRWRPPRLPRPRPRPMTQPRP  0.0159
48. RRIRCRPPRLPRPRPRPEVFPRP  0.00979
49. RRIRTRPPRLPRPRPRPNSGPRP  0.00712
50. RRIRNRPPRLPRPRPRPECTPRP  0.00282
51. RRIRQRPPRLPRPRPRPEPFPRP  -0.00936
52. RRIRQRPPRLPRPRPRPVNGPRP  -0.0109
53. RRIRYRPPRLPRPRPRPMQQPRP  -0.0118
54. RRIRIRPPRLPRPRPRPVYDPRP  -0.0144
55. RRIRIRPPRLPRPRPRPGEEPRP  -0.0165
56. RRIRNRPPRLPRPRPRPYMPPRP  -0.0173
57. RRIRERPPRLPRPRPRPEDGPRP  -0.0324
58. RRIRYRPPRLPRPRPRPTEKPRP  -0.0336
59. RRIRQRPPRLPRPRPRPIAVPRP  -0.038
60. RRIRQRPPRLPRPRPRPIDFPRP  -0.0381
61. RRIRSRPPRLPRPRPRPSRFPRP  -0.0392
62. RRIRERPPRLPRPRPRPILEPRP  -0.0533
63. RRIRPRPPRLPRPRPRPFPNPRP  -0.0765
64. RRIRVRPPRLPRPRPRPWGKPRP  -0.0952
65. RRIRTRPPRLPRPRPRPFCRPRP  -0.0976
66. RRIRNRPPRLPRPRPRPRHVPRP  -0.119
67. RRIRARPPRLPRPRPRPNTKPRP  -0.124
68. RRIRIRPPRLPRPRPRPIGKPRP  -0.13
69. RRIRYRPPRLPRPRPRPLMDPRP  -0.143
70. RRIRCRPPRLPRPRPRPKNSPRP  -0.159
71. RRIRFRPPRLPRPRPRPWEEPRP  -0.159
72. RRIRGRPPRLPRPRPRPWHGPRP  -0.163
73. RRIRHRPPRLPRPRPRPNMDPRP  -0.173
74. RRIRWRPPRLPRPRPRPFKFPRP  -0.174
75. RRIRTRPPRLPRPRPRPTHRPRP  -0.185
76. RRIRCRPPRLPRPRPRPKSLPRP  -0.191
77. RRIRSRPPRLPRPRPRPEKAPRP  -0.193
78. RRIRRRPPRLPRPRPRPSKHPRP  -0.196
79. RRIRIRPPRLPRPRPRPFCCPRP  -0.205
80. RRIRERPPRLPRPRPRPYLAPRP  -0.225
81. RRIRRRPPRLPRPRPRPNSMPRP  -0.233
82. RRIRNRPPRLPRPRPRPFKPPRP  -0.239
83. RRIRCRPPRLPRPRPRPNPMPRP  -0.246
84. RRIRQRPPRLPRPRPRPCPEPRP  -0.249
85. RRIRHRPPRLPRPRPRPKLGPRP  -0.249
86. RRIRQRPPRLPRPRPRPKPCPRP  -0.273
87. RRIRVRPPRLPRPRPRPGIEPRP  -0.28
88. RRIRPRPPRLPRPRPRPSVGPRP  -0.295
89. RRIRCRPPRLPRPRPRPDKFPRP  -0.296
90. RRIRIRPPRLPRPRPRPSPVPRP  -0.297
91. RRIRTRPPRLPRPRPRPFYAPRP  -0.301
92. RRIRSRPPRLPRPRPRPGYFPRP  -0.335
93. RRIRCRPPRLPRPRPRPIILPRP  -0.354
94. RRIRLRPPRLPRPRPRPMFFPRP  -0.381
95. RRIRFRPPRLPRPRPRPHHRPRP  -0.401
96. RRIRCRPPRLPRPRPRPNMDPRP  -0.431
97. RRIRDRPPRLPRPRPRPHMKPRP  -0.467
98. RRIRCRPPRLPRPRPRPSWHPRP  -0.488
99. RRIRTRPPRLPRPRPRPIYSPRP  -0.571
100. RRIRIRPPRLPRPRPRPYNWPRP  -0.577
101. RRIRCRPPRLPRPRPRPHNLPRP  -0.592
102. RRIRTRPPRLPRPRPRPHCPPRP  -0.605
103. RRIRQRPPRLPRPRPRPSIIPRP  -0.63
104. RRIRYRPPRLPRPRPRPHNQPRP  -0.753
105. RRIRCRPPRLPRPRPRPYSEPRP  -0.766
106. RRIRSRPPRLPRPRPRPHPYPRP  -0.807
107. RRIRYRPPRLPRPRPRPFSAPRP  -1.07
108. RRIRTRPPRLPRPRPRPFPIPRP  -1.16
109. RRIRYRPPRLPRPRPRPHYNPRP  -1.18
